Biological target: T1, IL-20RA/IL-20RB heterodimeric receptor (human, UniProt Q9UHF4 30-553; Q6UXL0 30-311)
T1 construct: Both subunits were co-expressed on transfected COS, BHK or BaF3 cells, or were endogenous on HaCaT keratinocytes; also called IL-20RB-IL-20RA heterodimer; IL-20 receptor
T1 sequence 1: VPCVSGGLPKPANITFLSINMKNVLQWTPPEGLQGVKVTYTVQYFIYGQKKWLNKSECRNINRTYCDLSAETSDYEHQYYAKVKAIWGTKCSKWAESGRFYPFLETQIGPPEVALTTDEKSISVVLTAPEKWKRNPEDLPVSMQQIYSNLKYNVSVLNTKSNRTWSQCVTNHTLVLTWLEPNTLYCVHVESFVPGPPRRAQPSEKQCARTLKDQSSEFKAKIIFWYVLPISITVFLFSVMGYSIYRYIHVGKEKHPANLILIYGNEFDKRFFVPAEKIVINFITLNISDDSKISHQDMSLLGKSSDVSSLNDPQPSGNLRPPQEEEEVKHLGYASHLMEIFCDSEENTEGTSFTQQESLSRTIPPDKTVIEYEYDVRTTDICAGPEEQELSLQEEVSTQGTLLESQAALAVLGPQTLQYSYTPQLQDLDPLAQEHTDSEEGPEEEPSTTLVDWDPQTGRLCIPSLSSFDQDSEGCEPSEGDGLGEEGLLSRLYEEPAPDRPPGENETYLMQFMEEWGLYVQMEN
T1 sequence 2: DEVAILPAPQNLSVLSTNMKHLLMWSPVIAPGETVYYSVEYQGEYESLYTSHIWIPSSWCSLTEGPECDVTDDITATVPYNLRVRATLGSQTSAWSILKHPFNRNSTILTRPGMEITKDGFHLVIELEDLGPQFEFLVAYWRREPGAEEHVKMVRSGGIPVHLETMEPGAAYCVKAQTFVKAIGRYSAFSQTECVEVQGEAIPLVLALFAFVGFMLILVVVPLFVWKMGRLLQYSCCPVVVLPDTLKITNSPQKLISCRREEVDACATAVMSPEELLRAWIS
Test: 125I-labeled IL-20 binding to BHK cells stably transfected with IL-20RA and IL-20RB

B1: IL-20 (Interleukin-20) (ligand, UniProt Q9NYY1 25-176, looked up)
chain: LKTLNLGSCVIATNLQEIRNGFSEIRGSVQAKDGNIDIRILRRTESLQDTKPANRCCLLRHLLRLYLDRVFKNYQTPDHYTLRKISSLANSFLTIKKDLRLCHAHMTCHCGEEAMKKYSQILSHFEKLEPQAAVVKALGELDILLQWMEETE
modifications: biotin-labeled in Example 3; 125I-labeled in Example 7; unlabeled in the functional assays
notes: also called Zcyto10; biotin-labeled IL-20 protein
  Kd: ~1.5 nM

— patent EP1246846B1 (ZymoGenetics, Inc., dated 2008)
